Measured values as given in a protein production outcome set (Wang et al. 2014).

test: label from the status in PepcDB records

**Q.** With “MDTVPPRTYNNSNFPEGLPAVSLSDEERARQQRWTPLRVTIWILISAIAGLGWWMLAVRRGETVNGIWFVFAAIGSYFIGYRFYAKYIQDKLVHPDDSRATPAEYDYNGRDFVPTDRRILYGHHFAAIAGAGPLVGPVLSAQMGYLPSTIWIIVGVILAGAVQDYLVLVISMRRGGRSLGQMAREELGRFGGIAALIATLTIMLIIVAILAMVVVNSLAASSWGVWSVGLTIPIALLMGFYLRYLRPGKVFEVSIIGIVLLVLAIASGAWIENTAVASALHLSKPFLAWAIIIYGFIAAVLPVWMLLAPRDYLSTFMKVGVIAMLAISIVIVRPVINVPAMTVYATNGAGPVFSGKLFPFLFVTIACGALSGFHATISSGTTPKLIEKESQARLIGYGGMLMESFVAIMALVAALSVDRGIYFAMNSPAGATGNTVKSAIAYVNSLGLSGVHANANTLTTTAKLVGETSIVSRTGGAPTLAVGLATIMHKIFGGEAMMSFWYHFAIMFEALFILTSVDAGTRVARFMLSDALGNFWPRLKDHSWKVGSWLTTAIMVAGWGSILLMGVTDPLGGINTLFPLFGIANQLLAAVALSICLVIFARAGHTWRLLIIFVPMLFTAIITVYGSWLKIFSPDPKLGYWANHMTYKRAIADGKTSLGQAKNIDEMHTVVGNTAIQGTMSIIFVVCALIVMIVACIRTVQALRGRNIIDTEDPAKPSKIFAPSGLMPTKAERDLQVEWDAFYEEHPELDLESVHKDKEHA” as the sequence, how does the protein production read?
**A.** failed

**Q.** With “MDTVTKLSIIIPAWNEETGIARTLETLLALTAGRGDTEIIVSVSGNDRTKAIARTFPVVVCHSEKGRAVQMNAGAKLATGSILYFLHADTTPPPSFCDDIFSAIERGARAGCFRMTFDDPDWLMQLYGWFTQFPLPVCRGGDQSLFITKELFGQIGGFDERLQIMEDIEIIDRLQRHAGFHILDSTVTTSARKYHTNGTVRLQAIFGTIHLMYALGFSQKNIVAFYRDSIRLEHHHHHH” as the sequence, how does the protein production read?
**A.** not failed

**Q.** With “MDTVTLARAFFGSSLAFHIIFATLGVGLSLMIFISEILYHWKKDSDYAIMAKRWTKAFAILLGVAIPTGTIVGVQISLLWPGFAKIVGQVISVPFQIEIFAFFLEALFMSIYVYAADKLPPFMRLISLFFVMLGATASAVLITSANTWMNTPAGFSMNPDGSVFNVDPWKAFFNPSFGTSAFHVVITAYATGAAVIASIAGFKLLKKNLSTREIAYHKKGLLLGLVVTFITGATMWLSGHESAIALHKHSPEKLASAEALFETTSHAPLSIGGVVDPNTLELNYALEIPNMLSLLVGLDPSTVVKGLKEFPQETWPPFYTHTLFNLMVGTAAFTFAVAAIALLYWYFVYRKKGTELPKWLLWGAAACGPIMMLGIEFGWIFSCSGRQPWTIYGMQRTVDASTRADFVGPLFVLFIILYIGLAILTVIVLRTFFRRHPLKNDLQHQGGDSHA” as the sequence, how does the protein production read?
**A.** failed

**Q.** Which protein production does the source give for “MDVAIELTTRVGVLLFFIAICHVIAQRVRLPDPIILTAAGVTIGFGYVALEHVAPAFAANTIAPFLSPAMPPEAYLWIFLPPILFQAAIEVDSSGFVADLGPILLLAIGAVVAATLSVGAVAYLTSGQGLIACLLLGAIVSTTDPSTVIGLFQSSGAPARLIRLVEGESLFNDAAAIAITTLLTGVISVMPTHDAAHFPLAQFLLSLLGGCAVGWLVGVVLVFVSGAMRSPPFAEYSLSLALPNLIYPFAERVLHVSGVAAVVCAGLVVGRIMLSRRPASHVKLFRQLWLYQATIASASVLLLATAHVPSLLDDLRMIDVVILLLVLVAAVASRFGILSVSMPMMSRIGICKPLPVSHQLLIAWGGVRGPVTLTLAICLARNQDLAPDTRHFAAAMAAGFVLLNLFFNGLTLKLFARWLGVAAPGGRRPAAIEVD” here?
**A.** failed

**Q.** Which protein production does the source give for “MDVEKIPGSVCLVAPHANANPTWPADLAWVKQVLFRMGIKVVATLTHRTPIAEIENIASAETSLLLSHDAGQKAADYLSATFGIEQVCKGIPLEHHHHHH” here?
**A.** failed

**Q.** For “MDVIKISPRGYCYGVVDAMVIAKNASLDKSLPRPIYILGMIVHNKHVTDAFEEEGILTLDGSNRLDILKQVDKGTVIFTAHGVSPEVRRIAEEKGLVAIDATCPDVTKTHNLILEMKEKGYHVIYIGKKGHPEPEGAVGVAPEIVHLVETEEDVKNLDIQSEKLIVTNQTTMSQWDVHDIMELVKEKYPHVEYHQEICLATQVRQEAVSEQAKKADLTIVVGDPKSNNSNRLAQVSEEIAGTKAYRIGDLSELKLEWLKGVNTVAVTAGASTPTPITKEVIRFLEQFDHE”, which protein production is on record?
**A.** failed

**Q.** Which protein production does the source give for “MDVKKDENSILENMKQEINHSLKEEAQEEEEILKKRISSHPLYGLLLHSHLNCLKVCSGDFDSPEIMNTADDLALSKLSLHPDSSSEATSSELDQFMVLFFFSPCQNIFTQQKTTFHVLLFFPLQINLTFKYSKFILPRKKQ” here?
**A.** failed

**Q.** With “MDVKQTLEKAIALRQNKRYQESNAILVTLCKEHAHDPQILYQCGWSFDVLGLEAQAVPYYEKAIASGLQGKDLAECYLGLGSTFRTLGEYRKAEAVLANGVKQFPNHQALRVFYAMVLYNLGRYEQGVELLLKIIAETSDDETIQSYKQAILFYADKLDETWKALEHHHHHH” as the sequence, how does the protein production read?
**A.** not failed

**Q.** Which protein production does the source give for “MDVSNKDAKRTDTIILANFDPITKEAKLISIPRDTRVKIGGKSQKINAAYPIGGEKLVKQLVGNILGVKVDYVVKVDYEGFRGIIDAIGGIDMYIEQDMNYDDPGQDLHIHFNKGETVHLDGKKAEEFFRWRKNNDGTGLVNGDVDRIKNQQKFINAVIDKVLSVSTITKIDSIAEILNKNIETNIPLDVTVAYGLKGLETDKNNIKMMTLPGEGKYVGNVSYYIPDEKATKELRSQLNSSNLSGRKNVIPSAARGDLSIKVLNCTKINGLAANVQKQLNENGYDKVDLEHHHHHH” here?
**A.** not failed

**Q.** With “MDVSVFLAALGISLLELTEAGAIAAIYHNIYKNNLPFIYAVLGVAIVLIPTFTLGKLIYLVPLNYVLLASAVILFYFGYRLIRSARRSFKGIKKKGGEEKEEGLSVVFTVSAIEGLEASLVILALIPQSYSSAVMGAILASVLVVILTAILKSQVARIRLPHLKFVLSALLFSLGTLWISEVVFDIPDLILPLFFLAYLGINYVIIKI” as the sequence, how does the protein production read?
**A.** failed

**Q.** Which protein production does the source give for “MDVYHDGACPEVKPVDNFDWSQYHGKWWEVAKYPSPNGKYGKCGWAEYTPEGKSVKVSRYDVIHGKEYFMEGTAYPVGDSKIGKIYHSRTVGGYTKKTVFNVLSTDNKNYIIGYSCRYDEDKKGHWDHVWVLSRSMVLTGEAKTAVENYLIGSPVVDSQKLVYSDFSEAACKVNNSNWSHPQFEK” here?
**A.** not failed

**Q.** For “MDYFLLHGGGNADRQSGGVHRWLAGAIRELGMLVAETSGHDAFLEQIGAVHPEVVFVRFASSPARIDVPEHDQKLGEGTDAIGEATQLVAQLTRLFPGLPLVAVGSASDGRAMLAALRAGVKDFIDVDGAPAEAVRVVRRLLAERASAEPTRRGRVLAILGARPGVGTTTLASNLATLVRRTSGGDVMLLDLGQPLRDGALYLNVPANFHFVEAVRNLRRFDQVFVQTALSRHPNGLAVLPLPVSLAEMRDISFSEALGLLNRLRTFFDLQVVDLGGFNNIDFIAQLVKAADDVMLVTEQSVGAIVSAAELMQELKKREIDRERLHLILSKFDARLSLDAEQIGVRLEIPSVLTVPSRRRALVVASNQGAMLAETHPIDPYVRAIAGIVQTLGYTQPGERAPGVAGWMAGMRARLGERFRRKPTEPAELDLRTTERNAT”, which protein production is on record?
**A.** failed

**Q.** Which protein production does the source give for “MDYGMYFFEHVTPYETLVRRMERVIASGKTPFQDYFLFESKGFGKVLILDKDVQSTERDEYIYHETLVHPAMLTHPEPKRVLIVGGGEGATLREVLKHPTVEKAVMVDIDGELVEVAKRHMPEWHQGAFDDPRAVLVIDDARAYLERTEERYDVVIIDLTDPVGEDNPARLLYTVEFYRLVKAHLNPGGVMGMQAGMILLTHHRVHPVVHRTVREAFRYVRSYKNHIPGFFLNFGFLLASDAFDPAAFSEGVIEARIRERNLALRHLTAPYLEAMFVLPKDLLEALEKETMVSTDQNPFYVTPEGEARQAPYKG” here?
**A.** not failed

**Q.** Which protein production does the source give for “MDYKPLAKEILKNIGTKSNVRSITHCVTRVRFVLNDESQANDEVIRDLDGVLDVVKQGGQYQVVIGPSVGSVYDAIIDVANFSDNVINSSEIAAPTSDETEEKGFLNKALGLISSIFIPVLGLLSGAGMIKAILSLCTVTGLLTAKSGTYIILSALGDTLFYFFPIVVGWSAARKFGLKEIYGVTLGAFLVYPTLATAASSTAVTTIFKGTIFALKYKMTFLGIPVALQSYSSTVIPIIIIVWFASYVYKYCDKVIPDVLKMVFVPFFTLLIAGVVSLIVIGPIAMILQNILSDTVLWLVGLNKGIAGFLLGFFWSILVMFGLHWAVIPFFAIDVAHYGYDVINPLIFAGGLAVLGSAIGVAIRARDERVKSMSVAAAISAFFGINEPALYGVLIPRKKVLLTSFLAAGIGGAIAGFSGSKLYSFGASGILGLPCFINPKGIDAGFIGLCISGIVAFVFALIAALIAGAKKDAKSKPAERHLAEHSDVYAPVAGESFDLTTVHDDVFSKLVLGDGIAVKPSDGKVYAPVTGIVRVAYPTGHAVGLASDDGEEVLIHIGIDTVNLEGKHFKMHVAQGMRVKKGDLLVDFDEAAISAAGYDTTVMMVVTKSERLKSVMPTQFGPVTKDTKVLDVELQSNSVESVTAVATND” here?
**A.** failed

**Q.** Which protein production does the source give for “MDYKVSVLIVCYNQEKYIKKALESVLSQKVNFNYEIVVCDDCSSDRTFNILQEYKSKLGSKLNLIRNYKNLGITLNYKNGFKNCKGEYIAVLEGDDYWIQKSKLKRQVSFLESNRDCSLVFNKIVLDYGDEKINNLIYPFNDIRKKFSARELVRSNFIQNFSCCMYRKSSIRKLRESIYDMVVYDWMFNMAVAQFGLIGYIPNYMTSHRILKSGLWSGKSKMENLQMISKCIDQYDSFFKYKYRKEFSQNKQEVLQALRRLVMVNENGLEHHHHHH” here?
**A.** not failed

**Q.** For “MDYMERPKLGLIVREPYASLIVDGRKVWEIRRRKTRHRGPLGIVSGGRLIGQADLVGVEGPFSVEELLAHQEKHLAEEAFLRAYAKDEPLYAWVLENAFRYEKPLHVPRRPGRVMFVDLSEVRW”, which protein production is on record?
**A.** not failed

**Q.** Which protein production does the source give for “MDYNQTVLSHLQKFWKHHDIKGFTWTLGRIVEELPDFQVFQVIPNHEDEPWVYVSSGIGQFLGQEFFIISPFETPEHIETLAMLASASMHYPDQFQLGKTVNIGRPWVEQSSFRHFLISLPYPYGQELEYMDNVRFFWLLPITQTERLFLNTHSVEELETKFDEAGIDYLDINRASTVWQAG” here?
**A.** not failed

**Q.** With “MDYREVDSTSEFVCRLEHGGDWRAQIEAFADEQGIDAGFFYGLGAVQDAELMFYDQDRTEYDSLTFDEPLEVAACMGNISHFDGERFAHTHAVLSRPDGEAVAGHLNAGTVWAGELYVRGFDTELQREHDEPTDLDLWNILEHHHHHH” as the sequence, how does the protein production read?
**A.** failed

**Q.** For “MDYSNTYGAYGGGGFLPESPARTGGNASTRFGVGSGSSLRDQRRSLLPVRVADLVHAVHDPVTNTFVLRDENEHQSITISEGSIVKVVAYVEELREQPLDLLWLLDDRSGEMIWARMASTSSSSLAALEQSGILVRVFGQLLEVDGRRVLNVRAIRKADGEVELRYHENLCQLSKLQLIRGYPTAGNALAGASSSPASPKAGPSKAVHRSSLGSGAPKEMAQQAPGLEIPAAFPPEHFKVLKCIREETARNRDAMLTDIAQRIALSTTKVRGICDALQNEGHIYCTLDDDTFRASSS”, which protein production is on record?
**A.** not failed

**Q.** For “MEAARSMTFSECAALYIKAHRSSWKNTKHADQWTNTIKTYCGPVIGPLSVQDVDTKLIMKVLDPIWEQKPETASRLRGRIESVLDWATVRGYREGDNLEHHHHHH”, which protein production is on record?
**A.** failed

**Q.** Which protein production does the source give for “MEAAVNAAEAYSHIRAVMGMVVGLSLARLLTGLAGFVQHPKKERIYLLHIGWVAFLFLMLVHFWWWEHRLSATGHVLDFGAFLFLILFCSLFYFLCVLLFPTDMKEYKGYEDYFFSRKSWFFAFLAALFVTDVGDTLLKGHDYLASLGPEYLIRTAIYVVLFTAAAFIDNRRFHRFLVIFALVYQIAWIFRTYDLLA” here?
**A.** failed

**Q.** For “MEAEEIIGLLKKGDLEKAKDALSKEIDNLSDEELKEILEVAESVAKEKEDIELLKLVVYYYAEFFGIDKLEEFEGIAKEKGYEGLMHLADLYSLLGYPEKALDIYRELLKTDLIKEKEHIGEIYYGIATIHDELQEYDKALEAINEAVKAFKESNNVEKLHQAEVYRAYITFENGDRDKAKEILAGLLPHVTNREIKAQIHLVFKEIFEDEENYEAAIQESLYSLIEGIDTEVFDLAFDGLIDLIWELILEDKFEEIYKSMPMFKVAIPSLKDFFEGVRRIAMYREGKIGREEVSEILMKVKDERLVSILEFLGEAEV”, which protein production is on record?
**A.** failed
